These results are taken from publication PMC10329638.

The target in the assay is rat ASIC3 wild type (rat) (UniProt O35240).
Sequence of UniProt O35240 (O35240 whole entry): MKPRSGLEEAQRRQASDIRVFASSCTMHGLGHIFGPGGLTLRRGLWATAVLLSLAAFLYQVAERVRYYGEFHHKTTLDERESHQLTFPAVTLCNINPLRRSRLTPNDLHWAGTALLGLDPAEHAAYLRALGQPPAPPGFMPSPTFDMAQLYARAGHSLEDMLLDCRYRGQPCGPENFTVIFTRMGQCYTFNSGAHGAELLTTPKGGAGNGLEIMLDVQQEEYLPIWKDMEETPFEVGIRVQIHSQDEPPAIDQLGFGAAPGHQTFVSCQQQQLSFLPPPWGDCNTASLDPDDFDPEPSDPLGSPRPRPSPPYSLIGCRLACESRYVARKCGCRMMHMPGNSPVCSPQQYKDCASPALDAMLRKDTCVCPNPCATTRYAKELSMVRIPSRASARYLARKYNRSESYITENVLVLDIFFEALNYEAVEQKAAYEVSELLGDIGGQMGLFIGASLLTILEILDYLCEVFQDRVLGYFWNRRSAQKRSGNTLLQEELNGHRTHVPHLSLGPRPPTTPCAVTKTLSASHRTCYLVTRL

As for “rat ASIC2a-H72N (from UniProt Q62962-1 1-512) (natural protein)”, the proton-gated currents of Xenopus oocytes co-expressing wild-type ASIC3 and mutant ASIC2a (two-electrode voltage clamp, pH 7.0 to 3) is > 1 µA.
